Results taken from patent US20130289246A1.
Residue numbers refer to the chain shown, from its start.

B1: mAb 4K8 (antibody, V domains shown)
VH: EVQLVESGGGLVQPGGSLRLSCAASEFNFKSYWMTWVRQAPGKGLEWVANINQDGSEKNYVDSVKGRFTISRDNAKNSLHLQMSSLRVDDTAVYYCARTGSSWDTYYYYYAMDVWGQGTTVTVS
VL: DIQLTQSPVSLSLSPGERATLSCRASQSVSSSYLVWYQQKPGQAPRLLIYGASSRAPGIPDRFSGSGSGTDFTLTISRLEREDFAVYYCQQYGRSFGQGTKVEIKR
B2: mAb 6D9 (antibody, V domains shown)
VH: EVQLVESGGGLVQPGGSLRLSCAASGFIFESYWMTWVRQAPGKGLEWVANIKQDGSEKNYVDSVKGRFTISRDNAKTSLYLQMNSLRAEDTAMYYCARSGSNWDTYYYYYGMDVWGQGTTVTVS
VL: EIVLTQSPGTLSLSPGERATLSCRASQSVDSNYLGWYQQRPGQAPRLLIYGASSRATGVPDRFSASGSGTDFTLSISRLEPEDFAVYYCQQYGSSFGQGTKVEIKR
B3: 5J8 Fab (Fab, V domains shown)
VH: EVQLVESGPGLVKPSDILSLTCAVSGYSISSNYYWGWIRQPPGKGLEWIGSIYHSGSTYYKPSLESRLGISVDTSKNQFSLKLSFVSAADTAVYYCARHVRSGYPDTAYYFDKWGQGTLVTVS
VL: SYVLTQPPSVSVAPGETARISCGGNNIGTKVLHWYQQTPGQAPVLVVYDDSDRPSGIPERFSGSNSGNTATLTISRVEVGDEADYYCQVWDISTDQAVFGGGTKLTVLG
B4: mAb 8F24 (antibody, V domains shown)
VH: EVQLLESGGGLVQPGGSLRLSCAASGFAFSSYGMSWVRQAPGKGLEWVSAFSGSGTSTYYADSVKGRFTISRDKSKNTLYLQMNSLRAEDTAIYYCAKPPGPYIVVAGLFENWGRGTLVTVS
VL: EIVMTQSPATLSVSPGERVTLSCRASQSITDGLAWYQQKSGQAPRLLIYGASTRATGIPARFSGSGSGTEFTLTISSLQSEDFAVYYCQQYNNWPPVTFGQGTKVEIKR
B5: mAb 25F7 (antibody, V domains shown)
VH: B4 VH
VL: QSVLTQPPSVSGAPGQRVTISCTGTSSNIGAGYEVHWYQQLPGTAPKLIINANTNRPSGVPDRFSGSQSGTSASLAITGLRAEDEADYYCQSFDSSLSGWLFGGGTKLTVLG
B6: mAb 3J10 (antibody, V domains shown)
VH: EVQLVESGGGVVQPGRSLRLSCAASGFSFSNYAMHWVRQAPGKGLEWVALISFDGSDKYYADSVKGRFTMSRDNSKNTLYLQMNSLRAEDTAVYYCARDEPYCGGDCFAFDVWGQGTMVTVS
VL: QSVLTQPPSVSGAPGQRVTISCTGSSSNIGAGYDVHWYQQLPGTAPKLLIYANNNRPSGVPDRFSGSKSGTSASLAITGLQAEDEADYYCQSYDSSLSGGVFGTGTTVTVLG
B7: mAb 6K14 (antibody, V domains shown)
VH: EVQLVESGAEVKKPGASVKVSCKASGYTFTSFDINWVRQAPGQGLEWMGWMTPTSGKTGYAQKFQGRITMTRNTSINTAYMELSSLRSEDTAVYFCARGPERRTTIFDVILDWFDPWGQGTLVTVS
VL: DIVMTQSPFSLSLSPGERATLSCRASQSISNYLAWYQQKPGQAPRLLIYDSSNRATGVPARFSGSGSGTDFTLTISSLEPEDFAVYYCQQRSNWMYTFGQGTKVEIKR
B8: mAb 10E15 (antibody, V domains shown)
VH: EVQLLESGGGVVQPGRSLRLSCAASGFTFRTYGMHWVRQAPGKGLEWVAVISHDGNLKYYGGSVKGRFTISRDNSKNALYLQMNSLRVDDTALYYCARGIGITDAFDIRGQGTMVVVS
VL: QSVLTQPPSVSAAPGQKVTISCSGSSSNIGKNYVSWYQQLPGTAPKLLIYDNDKRPSGIPDRFSGSKSGTSATLGITGLQTGDEADYHCGAWDSSLNGGVFGGGTKVTVLG
B9: mAb 3E22 (antibody, V domains shown)
VH: EVQLVESGAEVKKPGASVKVSCKASGYTFSRYYIHWVRQAPGQELEWMGWINPDSGDTNYAQKFRGRVTMARDTSISTVYMELNSLRYDDTAVYFCARIIWSSSGMDVWGQGTTVTVS
VL: QSALTQPASVSGSPGQSITISCTGTSSDVGSYNLVSWYQQHPGKAPKLMIYEVSKRPSGVSNRFSGSKSGNTASLTISGLQAEDEADYYCHLYVGSSNWVFGGGTKLAVLG
B10: mAb 5J8 (antibody, V domains shown)
VH: B3 VH
VL: B3 VL
B11: mAb 2K11 (antibody, V domains shown)
VH: EVQLVESGGGLVQPGGSLRLSCVASTFSLINYWMTWVRQAPGKGLEWVANIKQDGFEKYYVDSVKGRFTISRDNAKNSLYLQMNSLRVEDTAVYYCARQGSYADTYFYHYGMDVWGQGTTVTVS
VL: QSALTQPPSVSGAPGQRVTISCTGSSSNIGAGYDAYWYQQLPGTAPKLLIYGNSNRLSGVPDRFSASKSGTSASLAITGLQAEDEADYYCQSYDSSLSIFGGGTKLTVLR
B12: mAb 2O10 (antibody, V domains shown)
VH: EVQLVESGGGLVQPGGSLRLSCAASGFTFNSYWMTWVRQAPGKGLEWVANINQDGSEKFFVDSVKGRFTISRDNAKTSLYLQMNSLRVEDTAVYYCAREGAPYDTYYYYYAMDVWGQGTTVTVS
VL: QSVLTQPPSVSGAPGQRVTISCTGTSSNIGAGYGVHWYQQLPGAAPKLLVYGNSNRPSGVPDRFSGSKSGTSASLAITGLQAEDEADYYCQSYDISLSGSNVFGTGTKVTVLG
B13: mAb 18G6 (antibody, V domains shown)
VH: QVQLKESGPGLVKPSETLSLTCTVSGGSISSSNYNWGWIRQPPGKGLEWIGSVYYSGSTYFNPSLKSRVTISVDTSKNQFSLKLTSVTAADTAVYYCARLIAFYYDTNGYTWGQGTLVTVS
VL: NSIMTQSPFTLSASVGDKVTITCRASQSISPWLAWYQQKPGKAPKLLIYKASSLETGVPSRFSGSESGTEFTLTISGLQPDDFATYYCQQYSSFARTFGQGTKVEIKR
B14: mAb 25J3 (antibody, V domains shown)
VH: QVQLQESGPGLVRPSETLSLTCNVSGDSINDYYWSWIRQPPGKGLEWIGYIYYSGSTNYNPSLNSRVTISVEMSKNQFSLILNSVTAADTAVYYCARVDYDSGGSFDPWGQGTLVTVS
VL: B6 VL with A52G, N54S, Y88F, S96R, G100Y, T107K
B15: mAb 11J19 (antibody, V domains shown)
VH: EVQLQESGPGLVKPSETLSLSCTVSGGSITRSSYYWGWIRQPPGKGLEWIGNIYYSGTTYYNPSLKSRVTISVDTSKNQFSLKLSSVTAADTAVYYCARLYGSGLDYWGQGTLVTVS
VL: DIQLTQSPSFLSASVGDRVTITCRASQGSSRYVAWYQQKPGKAPKLLILAASTLHTGVPSRFSGSGSGTEFTLTISSLQPEDFATYSCQQLNGFLLTFGGGTKVEIKR

What follows are binders tested against HA of A/L3/1947 (H1N1) virus (Influenza A virus (H1N1)) (assay: cell-based or functional assay).

Row | Binder | HAI activity [µg/mL]
1 | B1 | > 20
2 | B2 | > 20

What follows are binders tested against HA of A/USSR/92/1977 (H1N1) virus (Influenza A virus (H1N1)) (assay: cell-based or functional assay).

Row | Binder | HAI activity [µg/mL]
3 | B1 | 0.32
4 | B2 | 2.5

What follows are binders tested against HA of A/New Jersey/11/1976 (H1N1) virus (Influenza A virus (H1N1)) (assay: cell-based or functional assay).

Row | Binder | HAI activity [µg/mL]
5 | B1 | 0.16
6 | B2 | 1.3

The binders below were run against HA of A/swine/Iowa/15/1930 (H1N1) virus (Influenza A virus (H1N1)) (assay: cell-based or functional assay).

Row | Binder | HAI activity [µg/mL]
7 | B1 | < 0.01
8 | B2 | 0.4

The binders below were run against HA of A/New Caledonia/20/1999 (H1N1) virus (Influenza A virus (H1N1)) (assay: cell-based or functional assay).

Row | Binder | HAI activity [µg/mL]
9 | B1 | > 20
10 | B2 | > 20

These binders were tested against HA of A/Brisbane/59/2007 (H1N1) virus (Influenza A virus (H1N1)) (assay: cell-based or functional assay).

Row | Binder | HAI activity [µg/mL]
11 | B1 | > 20
12 | B2 | > 20

Each binder was assayed against HA of A/South Carolina/1/1918 (H1N1), wild type, on VLP (Influenza A virus A/South Carolina/1/1918 (H1N1)) (UniProt Q9WFX3) (assay: cell-based or functional assay).

Row | Binder | HAI activity [µg/mL]
13 | B1 | < 0.01
14 | B2 | 0.2

The binders below were run against HA of A/Weiss/1943 (H1N1) virus (Influenza A virus (H1N1)) (assay: cell-based or functional assay).

Row | Binder | HAI activity [µg/mL]
15 | B1 | > 20
16 | B2 | > 20

What follows are binders tested against HA of A/California/04/2009 (H1N1) virus (Influenza A virus (H1N1)) (assay: cell-based or functional assay).

Row | Binder | HAI activity [µg/mL]
17 | B1 | < 0.01
18 | B2 | 0.7

What follows are binders tested against recombinant soluble trimeric 2009 H1 HA (A/California/04/2009, wild type) (Influenza A virus A/California/04/2009 (H1N1)) (assay: biolayer interferometry (Octet Red), His-tagged HA on anti-Penta-HIS tips).

Row | Binder | Kd [nM] | koff [s⁻¹] | kon [M⁻¹ s⁻¹]
19 | B3 | 26 | 0.0065 | 250000

What follows are binders tested against recombinant soluble trimeric 1918 H1 HA (A/South Carolina/1/1918, wild type) (Influenza A virus A/South Carolina/1/1918 (H1N1)) (UniProt Q9WFX3) (assay: ELISA, supernate).

Row | Binder | OD [OD]
20 | B4 | 0.209
21 | B5 | 0.075
22 | B6 | 0.069

The binders below were run against soluble 2004 H5 HA (Influenza A virus (H5N1, 2004)) (assay: ELISA, supernate).

Row | Binder | OD [OD]
23 | B7 | 1.12
24 | B8 | 1.69
25 | B9 | 1.57
26 | B4 | 0.074
27 | B10 | 0.077
28 | B11 | 0.075
29 | B12 | 0.072
30 | B13 | 0.071
31 | B5 | 0.076
32 | B14 | 0.07
33 | B15 | 0.067
34 | B6 | 0.075

These binders were tested against soluble 1999 H1 HA (seasonal 1999 H1N1) (Influenza A virus (H1N1, 1999)) (assay: ELISA, supernate; also: test concentration or dose not given here).

Row | Binder | OD [OD]
35 | B7 | 0.203
36 | B8 | 0.514
37 | B9 | 2.06
38 | B4 | 1.01
39 | B10 | 1.46
40 | B11 | 0.518
41 | B12 | 0.872
42 | B13 | 0.071
43 | B5 | 0.077
44 | B14 | 0.071
45 | B15 | 0.071
46 | B6 | 0.711

Each binder was assayed against recombinant soluble 1968 H3 HA (A/Aichi/2/1968) (Influenza A virus A/Aichi/2/1968 (H3N2)) (UniProt P03437) (assay: ELISA, supernate).

Row | Binder | OD [OD]
47 | B4 | 0.669
48 | B5 | 0.085
49 | B6 | 0.076

Each binder was assayed against recombinant soluble 1957 H2 HA (A/Japan/305+/1957) (Influenza A virus A/Japan/305+/1957 (H2N2)) (assay: ELISA, supernate).

Row | Binder | OD [OD]
50 | B7 | 1.93
51 | B8 | 0.485
52 | B9 | 1.18
53 | B4 | 0.073
54 | B10 | 0.077
55 | B11 | 0.08
56 | B12 | 0.073
57 | B13 | 0.757
58 | B5 | 0.871
59 | B14 | 0.07
60 | B15 | 0.079
61 | B6 | 0.074

Each binder was assayed against recombinant soluble trimeric 2009 H1 HA (A/California/04/2009, wild type) (Influenza A virus A/California/04/2009 (H1N1)) (assay: ELISA, supernate).

Row | Binder | OD [OD]
62 | B7 | 2.12
63 | B8 | 0.996
64 | B9 | 2.38
65 | B4 | 0.714
66 | B10 | 1.93
67 | B11 | 1.28
68 | B12 | 1.62
69 | B13 | 0.071
70 | B5 | 0.078
71 | B14 | 0.071
72 | B15 | 0.081
73 | B6 | 0.073
